These results are taken from PMC10397247.

Holding throughout (assay): two-hybrid library CCNG1;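 note: natural log of median RNA to DNA barcode read ratio; higher means stronger binding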
One assay concerns the target T1, 4H575-bN.
T1 chain: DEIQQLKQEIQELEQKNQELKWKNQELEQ

The target of the next assay is T2, 4H683-bN.
T2 chain: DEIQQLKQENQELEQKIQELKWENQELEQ

The next assay concerns the target T3, 4H754-bN.
T3 chain: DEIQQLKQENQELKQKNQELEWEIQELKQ

The next assay has as its target T4, 4H797-bN.
T4 chain: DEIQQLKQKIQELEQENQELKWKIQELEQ

The next assay has as its target T5, 4H780-bN.
T5 chain: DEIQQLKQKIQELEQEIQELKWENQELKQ

The next assay deals with T6, 4H953-bN.
T6 chain: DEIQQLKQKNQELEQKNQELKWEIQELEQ

For the next assay, the target named is T7, 4H4073-bN.
T7 chain: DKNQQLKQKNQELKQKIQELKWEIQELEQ

Another assay deals with T8, 4H968-bN.
T8 chain: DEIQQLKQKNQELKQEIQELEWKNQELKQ

A further assay addresses T9, 4H918-bN.
T9 chain: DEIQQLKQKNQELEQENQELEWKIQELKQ

Another assay deals with T10, 4H457-bN.
T10 chain: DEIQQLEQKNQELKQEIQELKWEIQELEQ

For a further assay, the target named is T11, 4H855-bN.
T11 chain: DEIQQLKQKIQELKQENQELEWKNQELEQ

Another assay deals with T12, O9-bH.
T12 chain: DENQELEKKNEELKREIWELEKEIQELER
To be noted: mean of both orientations.

For the next assay, the target named is T13, 4H3926-bN.
T13 chain: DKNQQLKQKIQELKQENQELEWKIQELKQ
The note with it: mean of both orientations.

The target of another assay is T14, 4H591-bN.
T14 chain: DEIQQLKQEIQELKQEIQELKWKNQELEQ

A further assay deals with T15, 4H906-bN.
T15 chain: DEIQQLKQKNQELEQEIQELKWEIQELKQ

For another assay, the target named is T16, 4H626-bN.
T16 chain: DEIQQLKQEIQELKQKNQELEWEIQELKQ

Another assay deals with T17, 4H796-bA.
T17 chain: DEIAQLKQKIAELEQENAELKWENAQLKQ

For a further assay, the target named is T18, 4H949-bA.
T18 chain: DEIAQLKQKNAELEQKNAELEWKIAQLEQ

The target of another assay is T19, 4H932-bA.
T19 chain: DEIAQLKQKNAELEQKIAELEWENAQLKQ

Another assay has as its target T20, 4H730-bA.
T20 chain: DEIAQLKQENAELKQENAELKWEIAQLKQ

The target of another assay is T21, 4H4001-bA.
T21 chain: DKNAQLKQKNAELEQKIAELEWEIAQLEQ

The target in a further assay is T22, 4H3381-bA.
T22 chain: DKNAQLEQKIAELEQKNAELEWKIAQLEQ

A further assay has as its target T23, 4H56-bA.
T23 chain: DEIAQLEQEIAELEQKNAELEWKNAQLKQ

For another assay, the target named is T24, 4H349-bA.
T24 chain: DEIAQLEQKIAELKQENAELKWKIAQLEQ

B1: 4H4073-bN (peptide)
chain: DKNQQLKQKNQELKQKIQELKWEIQELEQ
In the case of B1, the interaction score with 4H575-bN was -1.72; with 4H683-bN, -1.31; with 4H754-bN, -1.18; with 4H797-bN it was -0.921; with 4H780-bN, -0.882; with 4H953-bN it was -1.56. Further, the interaction score is -1.77 in the assay with 4H4073-bN; -1.13 with 4H968-bN; -0.772 with 4H918-bN; -0.816 in the assay with 4H457-bN; -0.729 in the assay with 4H855-bN.

B2: O9-bH (peptide)
chain: DENQELEKKNEELKREIWELEKEIQELER
For the molecule B2, in the assay with O9-bH, the interaction score was -0.295.

B3: 4H3926-bN (peptide)
chain: DKNQQLKQKIQELKQENQELEWKIQELKQ
For the molecule B3, the interaction score was 0.813 in the assay with 4H575-bN; -0.623 with 4H3926-bN; 0.172 with 4H591-bN; -1.15 with 4H683-bN; -0.529 with 4H906-bN; -0.867 in the assay with 4H754-bN. Moreover, the interaction score in the assay with 4H797-bN is -0.358; with 4H780-bN, -0.772; in the assay with 4H953-bN it was -0.788; in the assay with 4H4073-bN, -1.26; with 4H968-bN it was -0.934; in the assay with 4H918-bN, -2.11. The interaction score is -0.388 in the assay with 4H626-bN, 1.06 in the assay with 4H457-bN and -0.684 in the assay with 4H855-bN.

B4: 4H3381-bA (peptide)
chain: DKNAQLEQKIAELEQKNAELEWKIAQLEQ
As for B4, the interaction score with 4H796-bA was -0.941; in the assay with 4H949-bA, -1.1; in the assay with 4H932-bA, -0.845; with 4H730-bA, -1.47; with 4H4001-bA it was -0.563; with 4H3381-bA, 0.241. In addition, the results for the interaction score in the assay with 4H56-bA and with 4H349-bA were -0.961 and -1.06, respectively.
